Tests used:
[1] = molecular target: ultra-large von Willebrand factor (ULvWF) (human) (UniProt P04275); assay: cell-based or functional assay
[2] = molecular target: T1, human von Willebrand Factor (vWF) (human, UniProt P04275 764-2813); assay: BIACORE (SPR): vWF amine-coupled to a CM5 chip, nanobody injected at 1.3 nM
T1 construct: Multimeric plasma protein; The species of the vWF on the BIACORE chip and ELISA plates is not restated there; also called vWF (Red Cross); human vWF

[3] = molecular target: T1, human von Willebrand Factor (vWF); assay: ELISA: vWF coated on the plate, nanobody titrated from 10 µg/ml in 3-fold steps, detection with mouse anti-myc and anti-mouse-HRP, OD 405 nm
[4] = molecular target: T1, human von Willebrand Factor (vWF); assay: ELISA: vWF coated on the plate, nanobody titrated in 3-fold steps, detection with mouse anti-myc and anti-mouse-HRP, OD 405 nm
[5] = molecular target: T1, human von Willebrand Factor (vWF); assay: BIACORE (SPR): vWF amine-coupled to a CM5 chip, nanobody injected at 1.3 nM; remark: listed apart in the source
[6] = molecular target: T1, human von Willebrand Factor (vWF); assay: ELISA on coated vWF: supernatant of a 200 µg/ml nanobody solution heated for 1 h at RT to 90 °C, dilution series, OD 405 nm
pig vWF = molecular target: T2, pig vWF (pig, UniProt Q28833 438-2482); assay: sandwich ELISA: nanobody (10 µg/ml) captured on coated anti-myc, plasma from a 5-fold dilution in 2-fold steps, detection with polyclonal anti-vWF-HRP, OD 405 nm
T2 construct: Native vWF in plasma

[7] = molecular target: T1, human von Willebrand Factor (vWF); assay: ELISA: vWF coated on the plate, nanobody titrated in 3-fold steps, detection with mouse anti-myc and anti-mouse-HRP, OD 405 nm; remark: listed apart in the source

For “ADAMTS-13 (from UniProt Q76LX8 75-1427) (enzyme)”, the cleavage of ULvWF platelet strings on perfusion of pooled normal plasma containing ADAMTS-13 [1] was > 95% and the cleavage of ULvWF platelet strings on perfusion of pooled normal plasma containing ADAMTS-13 and ALX-0081 (10 µg/ml) [1] was 95%.

B1: 12B6-GS30-12B6 (VHH)
chain: QVQLVESGGGLVQAGGALRLSCAASGRTFSYNPMGWFRQAPGKERDVVAAISRTGGSTYYARSVEGRFTISRDNAKRMVYLQMNALKPEDTAVYYCAAAGVRAEDGRVRTLPSEYNFWGQGTQVTVSSGGGGSGGGGSGGGGSGGGGSGGGGSGGGGSEVQLVESGGGLVQAGGALRLSCAASGRTFSYNPMGWFRQAPGKERDVVAAISRTGGSTYYARSVEGRFTISRDNAKRMVYLQMNALKPEDTAVYYCAAAGVRAEDGRVRTLPSEYNFWGQGTQVTVSS
notes: also called bivalent 12B6
B1: binds [2].

B2: 14F8 (VHH)
VHH: AVQLVESGGGLVQAGESLRLSCTSSGRAFSYYNTGWFRQAPGKEREFVAAISWSGGLTYYADSVKGRFTISRDNAKDMVYLQMASLKPEDTAVYYCAANRRQKTVQMGERAYDYWGQGTQVTVSS
notes: Monovalent llama Nanobody; TALON-purified and detected with anti-myc, so tagged (myc/His)
With B2 the “EC50 (read off the curve)” value [3] was ~0.02 µg/mL.

B3: 12A5H1 (VHH)
VHH: EVQLVESGGGLVQPGGSLRLSCAASGRIFSIGAMGMYRQAPGKGRELVATITSGGSTNYADPVKGRFTISRDGPKNTVYLQMNSLRAEDTAVYYCYANLKQGSYGYRFNDYWGQGTQVTVSS
notes: Humanised 12A5, monovalent; TALON-purified, so His-tagged
With B3 the “EC50 (read off the curve)” value [4] was ~0.005 µg/mL.

B4: 12A5H2 (VHH)
VHH: EVQLVESGGGLVQPGGSLRLSCAASGRIFSIGAMGMYRQAPGKGRELVATITSGGSTNYADPVKGRFTISRDGAKNTVYLQMNSLRAEDTAVYYCYANLKQGSYGYRFNDYWGQGTQVTVSS
notes: as for B3
For B4, the “EC50 (read off the curve)” value [4] was ~0.03 µg/mL.

B5: ADAMTS-13 (protein)
chain: AAGGILHLELLVAVGPDVFQAHQEDTERYVLTNLNIGAELLRDPSLGAQFRVHLVKMVILTEPEGAPNITANLTSSLLSVCGWSQTINPEDDTDPGHADLVLYITRFDLELPDGNRQVRGVTQLGGACSPTWSCLITEDTGFDLGVTIAHEIGHSFGLEHDGAPGSGCGPSGHVMASDGAAPRAGLAWSPCSRRQLLSLLSAGRARCVWDPPRPQPGSAGHPPDAQPGLYYSANEQCRVAFGPKAVACTFAREHLDMCQALSCHTDPLDQSSCSRLLVPLLDGTECGVEKWCSKGRCRSLVELTPIAAVHGRWSSWGPRSPCSRSCGGGVVTRRRQCNNPRPAFGGRACVGADLQAEMCNTQACEKTQLEFMSQQCARTDGQPLRSSPGGASFYHWGAAVPHSQGDALCRHMCRAIGESFIMKRGDSFLDGTRCMPSGPREDGTLSLCVSGSCRTFGCDGRMDSQQVWDRCQVCGGDNSTCSPRKGSFTAGRAREYVTFLTVTPNLTSVYIANHRPLFTHLAVRIGGRYVVAGKMSISPNTTYPSLLEDGRVEYRVALTEDRLPRLEEIRIWGPLQEDADIQVYRRYGEEYGNLTRPDITFTYFQPKPRQAWVWAAVRGPCSVSCGAGLRWVNYSCLDQARKELVETVQCQGSQQPPAWPEACVLEPCPPYWAVGDFGPCSASCGGGLRERPVRCVEAQGSLLKTLPPARCRAGAQQPAVALETCNPQPCPARWEVSEPSSCTSAGGAGLALENETCVPGADGLEAPVTEGPGSVDEKLPAPEPCVGMSCPPGWGHLDATSAGEKAPSPWGSIRTGAQAAHVWTPAAGSCSVSCGRGLMELRFLCMDSALRVPVQEELCGLASKPGSRREVCQAVPCPARWQYKLAACSVSCGRGVVRRILYCARAHGEDDGEEILLDTQCQGLPRPEPQEACSLEPCPPRWKVMSLGPCSASCGLGTARRSVACVQLDQGQDVEVDEAACAALVRPEASVPCLIADCTYRWHVGTWMECSVSCGDGIQRRRDTCLGPQAQAPVPADFCQHLPKPVTVRGCWAGPCVGQGTPSLVPHEEAAAPGRTTATPAGASLEWSQARGLLFSPAPQPRRLLPGPQENSVQSSACGRQHLEPTGTIDMRGPGQADCAVAIGRPLGEVVTLRVLESSLNCSAGDMLLLWGRLTWRKMCRKLLDMTFSSKTNTLVVRQRCGRPGGGVLLRYGSQLAPETFYRECDMQLFGPWGEIVSPSLSPATSNAGGCRLFINVAPHARIAIHALATNMGAGTEGANASYILIRDTHSLRTTAFHGQQVLYWESESSQAEMEFSEGFLKAQASLRGQYWTLQSWVPEMQDPQSWKGKEGT
In the case of B5, the “proteolytic cleavage of the A1-A2-A3 fragment by normal pool plasma (Western blot)” value (A1A2A3 construct, P04275) is reported as “resulting in proteolytic cleavage of the fragment”.

B6: 12D11 (VHH)
VHH: AVQLVDSGGGLVQAGGSLRLSCTASERTTFSSYTLGWFRQAPGKEREFVGGISWSGVSTDYAEFAKGRFTISRDHAANTVYLEMNSLKPEDTAVYYCAALGRYRSNWRNIGQYDYWGQGTQVTVSS
notes: as for B2
B6: binds [3].

B7: 12B6-3a-12B6 (VHH)
chain: QVQLVESGGGLVQAGGALRLSCAASGRTFSYNPMGWFRQAPGKERDVVAAISRTGGSTYYARSVEGRFTISRDNAKRMVYLQMNALKPEDTAVYYCAAAGVRAEDGRVRTLPSEYNFWGQGTQVTVSSAAAEVQLVESGGGLVQAGGALRLSCAASGRTFSYNPMGWFRQAPGKERDVVAAISRTGGSTYYARSVEGRFTISRDNAKRMVYLQMNALKPEDTAVYYCAAAGVRAEDGRVRTLPSEYNFWGQGTQVTVSS
notes: also called bivalent 12B6
B7: binds [2].

B8: 12A2-3a-12A2 (VHH)
chain: QVKLEESGGGLVQAGGALRLSCAASGRTFSYNPMGWFRQAPGKERDLVAAISRTGGSTYYPDSVEGRFTISRDNAKRMVYLQMNNLKPEDTAVYYCAAAGVRAEDGRVRTLPSEYTFWGQGTQVTVSSAAAEVQLVESGGGLVQAGGALRLSCAASGRTFSYNPMGWFRQAPGKERDLVAAISRTGGSTYYPDSVEGRFTISRDNAKRMVYLQMNNLKPEDTAVYYCAAAGVRAEDGRVRTLPSEYTFWGQGTQVTVSS
notes: also called bivalent 12A2
B8: binds [5].

B9: 12C9 (VHH)
VHH: AVQLVESGGGLVQPGGSLKLSCATSGSIFSSSAMAWYRQASGKQRELVATITSGGRTSYADSVKGRFTISRDNAKNTVYLQMNSLKPEDTAVYDCNFVVDGKRAPWGQGTQVTVSS
notes: as for B2
B9: binds [3].

B10: 12B1 (VHH)
VHH: QVQLVESGGGLVQAGGSLRLSCAASGRTFSNYGMGWFRQAPGKEREFVTSISWSGTYTAYSDNVKGRFTISRDNAKNTVYLQMDSLKPEDTAVYYCAAQSRYRSNYYDHDDKYAYWGQGTQVTVSS
notes: as for B2
In the case of B10, the “EC50 (read off the curve)” value [3] is reported as ~0.02 µg/mL.

B11: 12E3 (VHH)
VHH: EVQLVESGGGLVQAGGSLRLSCAASGRTFNNYGMGWFRQAPGKEREFVTSISWSGSYTAYADNVKGRFTISRDNAKNTVYLQMDSLKPGDTAVYYCAAQSRYSSNYYDHDDKYAYWGQGTQVTVSS
notes: as for B2
B11: binds [3].

B12: 12A2H1 (VHH)
VHH: EVQLVESGGGLVQPGGSLRLSCAASGRTFSYNPMGWFRQAPGKGRELVAAISRTGGSTYYPDSVEGRFTISRDNAKRMVYLQMNSLRAEDTAVYYCAAAGVRAEDGRVRTLPSEYTFWGQGTQVTVSS
notes: Humanised 12A2, monovalent
B12: binds [6].

B13: 12B6 (VHH)
VHH: QVQLVESGGGLVQAGGALRLSCAASGRTFSYNPMGWFRQAPGKERDVVAAISRTGGSTYYARSVEGRFTISRDNAKRMVYLQMNALKPEDTAVYYCAAAGVRAEDGRVRTLPSEYNFWGQGTQVTVSS
notes: as for B2
In the case of B13, the “EC50 (read off the curve)” value [3] is reported as ~0.02 µg/mL.

B14: 12A2 (VHH)
VHH: QVKLEESGGGLVQAGGALRLSCAASGRTFSYNPMGWFRQAPGKERDLVAAISRTGGSTYYPDSVEGRFTISRDNAKRMVYLQMNNLKPEDTAVYYCAAAGVRAEDGRVRTLPSEYTFWGQGTQVTVSS
notes: 12B6 homologue, monovalent Nanobody
B14: binds (pig vWF).

B15: 12B6H2 (VHH)
VHH: EVQLVESGGGLVQPGGSLRLSCAASGRTFSYNPMGWFRQAPGKGREVVAAISRTGGSTYYARSVEGRFTISRDNAKRMVYLQMNSLRAEDTAVYYCAAAGVRAEDGRVRTLPSEYNFWGQGTQVTVSS
notes: Humanised 12B6, monovalent
B15 was tested, and the “EC50 (read off the curve)” value [7] was ~0.01 µg/mL.

B16: 12B6H1 (VHH)
VHH: EVQLVESGGGLVQPGGSLRLSCAASGRTFSYNPMGWFRQAPGKGRDVVAAISRTGGSTYYARSVEGRFTISRDNAKRMVYLQMNSLRAEDTAVYYCAAAGVRAEDGRVRTLPSEYNFWGQGTQVTVSS
notes: Humanised 12B6, monovalent
For B16, the “EC50 (read off the curve)” value [7] was ~0.02 µg/mL.

B17: 12B6-GS9-12B6 (VHH)
chain: QVQLVESGGGLVQAGGALRLSCAASGRTFSYNPMGWFRQAPGKERDVVAAISRTGGSTYYARSVEGRFTISRDNAKRMVYLQMNALKPEDTAVYYCAAAGVRAEDGRVRTLPSEYNFWGQGTQVTVSSGGGGSGGGSEVQLVESGGGLVQAGGALRLSCAASGRTFSYNPMGWFRQAPGKERDVVAAISRTGGSTYYARSVEGRFTISRDNAKRMVYLQMNALKPEDTAVYYCAAAGVRAEDGRVRTLPSEYNFWGQGTQVTVSS
notes: also called bivalent 12B6
B17: binds [2].

B18: 12A2-GS9-12A2 (VHH)
chain: QVKLEESGGGLVQAGGALRLSCAASGRTFSYNPMGWFRQAPGKERDLVAAISRTGGSTYYPDSVEGRFTISRDNAKRMVYLQMNNLKPEDTAVYYCAAAGVRAEDGRVRTLPSEYTFWGQGTQVTVSSGGGGSGGGSEVQLVESGGGLVQAGGALRLSCAASGRTFSYNPMGWFRQAPGKERDLVAAISRTGGSTYYPDSVEGRFTISRDNAKRMVYLQMNNLKPEDTAVYYCAAAGVRAEDGRVRTLPSEYTFWGQGTQVTVSS
notes: also called bivalent 12A2
B18: binds [5].

Reference: patent publication US20130136736A1 (Ablynx, published 2013)
